In patent US20100047253A1 (Amgen, published 2010):
Values joined by “and” are separate entries in the source; they are usually repeats but may differ in a detail not shown here. Identical values can stand only once.

T1: Human IL-13-Mouse IL-13 Helix B (human IL-13 with mouse Helix B, UniProt P35225 35-146, limits assumed)
T1 construct: Expressed and secreted chimeric protein; also called Mo HelixB
T1 chain: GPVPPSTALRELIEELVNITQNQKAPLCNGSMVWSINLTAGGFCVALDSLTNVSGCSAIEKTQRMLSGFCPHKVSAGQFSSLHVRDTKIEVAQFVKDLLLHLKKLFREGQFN

T2: Human IL-13-Mouse IL-13 Helix D (human IL-13 with mouse Helix D)
T2 construct: Expressed and secreted chimeric protein; also called Mo HelixD
T2 chain: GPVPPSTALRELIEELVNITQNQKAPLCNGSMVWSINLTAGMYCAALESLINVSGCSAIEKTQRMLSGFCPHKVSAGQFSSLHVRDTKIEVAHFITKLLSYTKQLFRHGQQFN

T3: Human IL-13-Mouse IL-13 Helix C (human IL-13 with mouse Helix C, UniProt P35225 35-146, limits assumed)
T3 construct: Expressed and secreted chimeric protein; also called Mo HelixC
T3 chain: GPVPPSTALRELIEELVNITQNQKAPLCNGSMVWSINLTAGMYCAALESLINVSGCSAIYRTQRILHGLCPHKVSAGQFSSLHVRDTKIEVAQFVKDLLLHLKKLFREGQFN

T4: 693 phage
T4 peptide: YKIGEPHKDTYM

T5: mouse IL-13 (mouse, UniProt P20109 22-131, limits assumed)
T5 construct: also called murine IL-13
T5 sequence (looked up): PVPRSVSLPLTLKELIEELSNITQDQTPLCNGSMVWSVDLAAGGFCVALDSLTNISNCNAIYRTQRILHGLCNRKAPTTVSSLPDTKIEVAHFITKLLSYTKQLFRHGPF


What was measured:
[1] = target: T1, Human IL-13-Mouse IL-13 Helix B; assay: ELISA on secreted IL-13 chimeric proteins
[2] = target: T2, Human IL-13-Mouse IL-13 Helix D; assay: ELISA on secreted IL-13 chimeric proteins
[3] = target: T3, Human IL-13-Mouse IL-13 Helix C; assay: ELISA on secreted IL-13 chimeric proteins
[4] = target: T4, 693 phage; assay: Panning of mAb 693 against a 12-mer random peptide library expressed on phage, two rounds
[5] = target: T5, mouse IL-13; assay: epitope mapping with mouse IL-13 chimeric molecules (ELISA)
[6] = target: T6, human IL-13 (source not stated for the assay) (human, UniProt P35225 35-146, limits assumed); assay: cell-based or functional assay
[7] = target: T7, Recombinant Human IL-13 (R & D 213-IL-005) (human, UniProt P35225 35-146); assay: SPR (Biacore 2000), mAb captured on goat anti-human surface, IL-13 (R&D) injected, 1:1 model
T7 construct: also called IL-13 antigen (R&D Systems)

[8] = target: T6, human IL-13 (source not stated for the …); assay: cell-based or functional assay; remark: listed apart in the source
[9] = target: T8, native human IL-13 (human, UniProt P35225 35-146, limits assumed); assay: KinExA kinetic, direct method
T8 construct: also called hIL-13

[10] = target: T8, native human IL-13; assay: KinExA kinetic, injection method; koff calculated from kon and KD
[11] = target: T8, native human IL-13; assay: KinExA; KD from the equilibrium experiments, printed in the kinetic table (direct method row); KinExA kinetic, direct method row; KD taken from the equilibrium experiments
[12] = target: T6, human IL-13 (source not stated for the …); assay: cell-based or functional assay; remark: listed apart in the source
[13] = target: marmoset IL-13 (marmoset, UniProt A0A8I3WT33 35-145); assay: KinExA, n-curve analysis
[14] = target: T8, native human IL-13; assay: KinExA; KD from the equilibrium experiments, printed in the kinetic table (injection method row)
[15] = target: T8, native human IL-13; assay: KinExA kinetic, direct method; koff calculated from kon and KD
[16] = target: T7, Recombinant Human IL-13 (R & D …); assay: SPR (Biacore 2000) high resolution, mAb captured on goat anti-human Fc pAb, IL-13 (R&D Systems) 12.6-0.394 nM, 23 C, global 1:1 fit
[17] = target: T9, native macaque IL-13 (macaque monkey); assay: KinExA, equilibrium in solution
T9 construct: also called macaque monkey IL-13

[18] = target: T8, native human IL-13; assay: KinExA, equilibrium in solution
[19] = target: T10, Human IL-13-rabbit Fc fusion protein (human IL-13 fused to rabbit Fc); assay: ELISA on plates coated with IL-13RbFc, detection with rabbit anti Hu IgG Fc HRP (paragraph 267 to paragraph 269)
T10 construct: also called IL-13-RbFc; IL-13 Rb Fc

[20] = target: T8, native human IL-13; assay: KinExA kinetic, injection method

T9 sequence (Q864V6 19-132): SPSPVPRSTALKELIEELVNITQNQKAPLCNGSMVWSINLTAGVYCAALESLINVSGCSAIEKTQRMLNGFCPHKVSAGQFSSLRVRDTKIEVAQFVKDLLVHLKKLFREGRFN
T10 sequence (chain, as listed by the source limits assumed): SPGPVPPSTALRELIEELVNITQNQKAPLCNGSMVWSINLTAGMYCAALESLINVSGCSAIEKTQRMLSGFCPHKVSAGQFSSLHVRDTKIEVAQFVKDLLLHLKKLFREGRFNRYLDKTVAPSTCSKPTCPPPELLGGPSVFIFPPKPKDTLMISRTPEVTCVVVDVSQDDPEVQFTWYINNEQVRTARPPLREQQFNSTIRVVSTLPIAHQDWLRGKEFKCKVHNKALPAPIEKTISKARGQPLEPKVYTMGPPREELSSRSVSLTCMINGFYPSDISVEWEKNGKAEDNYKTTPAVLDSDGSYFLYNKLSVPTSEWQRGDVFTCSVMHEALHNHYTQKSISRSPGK
Chain of marmoset IL-13 (A0A8I3WT33 entry or part of it): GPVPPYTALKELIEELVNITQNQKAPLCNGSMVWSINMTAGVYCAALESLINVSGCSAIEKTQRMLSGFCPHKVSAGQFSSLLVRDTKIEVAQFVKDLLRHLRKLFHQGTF

binding result [1]	binding result [2]	binding result [3]	binding result [5]	IC50, IL-13 induced eotaxin release, Average [6]	IC50, IL-13 induced eotaxin release, n = 1 [6]	IC50, IL-13 induced eotaxin release, n = 2 [6]	IC50, IL-13 induced eotaxin release, n = 3 [6]	Kd [7]	koff [7]	kon [7]	Binder	further results
binds	no binding	binds	no binding	54 pM	38 pM	69 pM	53 pM	189 pM and 109 pM	0.00038 s⁻¹ and 0.00027 s⁻¹	2e+06 M⁻¹ s⁻¹ and 2.5e+06 M⁻¹ s⁻¹	mAb 693 (antibody, V domains shown, also called sc693) VH: QVQLQESGPGLVKPSETLSLTCSVSGGSISSYYWSWIRQPAGKGLEWIGRIYMTGRTNYNSSLKSRVTMSIDTSKNQLSLKLSFMTAADTAVYYCARESGSSYSYDYWGQGTLVTVSS VL: SYVLTQPPSVSVAPGQTARITCGGNNIGSKGVHWYQQKPGQAPVLVVYDDSDRPSGIPERFSGSNSGNTATLTISRVEAGDEADYYCQVWVSSSDHHVVFGGGTKLTVV	binding result [4]: binds
binds	–	binds	no binding	36 pM	31 pM	40 pM	35 pM	52 pM	0.00025 s⁻¹	4.9e+06 M⁻¹ s⁻¹	mAb 623 (antibody, V domains shown, also called sc623) VH: EVQLVESGGGLVKPGGSLRLSCAASGFTFSNAWMSWVRQAPGKGLEWVGRIRSEIDGGTTNYAAPVKGRFTISRDDSKNTLYLQMNSLKTEDTAVYYCATDQVGAYYGDYYGMDVWGQGTTVTVSS VL: SYELTQPPSVSVSPGQTARITCSGDALPEKYAYWYQQKSGQAPVLVIYEDSKRPSGIPERFSGSSSGTMATLTISGAQVEDEADYYCHSTDSSGNHGVFGGGTKLTVLG	EC50, HDLM-2 proliferation assay (3H-thymidine) [8]: 4500 pM; EC50, L-1236 proliferation assay (3H-thymidine) [8]: 390 pM; IC50, IL-13-induced CD23 expression on whole blood B cells (FACS) [8]: 6200 pM; kon [9]: 1.1e+07 M⁻¹ s⁻¹; koff [10]: 0.00036 s⁻¹; Kd [11]: 24 pM; IC50, eotaxin production by HDFa cells, 300 pM IL-13 [12]: 56 pM; IC50, eotaxin production by HDFa cells, 600 pM IL-13 [12]: 113 pM; Kd [13]: 403 pM; Kd [14]: 24 pM; koff [15]: 0.00027 s⁻¹; Kd [16]: 34 pM; kon [16]: 7.3e+06 M⁻¹ s⁻¹; Kd [17]: 37 pM; Kd [18]: 24 pM; binding result [19]: binds; kon [20]: 1.5e+07 M⁻¹ s⁻¹
binds	no binding	binds	no binding	176 pM	223 pM	144 pM	160 pM	–	–	–	mAb 785 (antibody, V domains shown) VH: not shown VL: SYVLTQPPSVSVAPGQTARITCGGNNIGNKIVHWYQQKPGQAPVLVVYDDSDRPSGIPERFSGSNSGNTATLTISRVEAGDEADYYCQVWDSSSDHVVFGGGTKLTVLG	–
